Test: parallel wall flow chamber, 293T α4β7 transfectants
Conditions: glycan lost; control: wild type

B1: integrin β7 subunit: N260A (protein)
parent chain: MVALPMVLVLLLVLSRGESELDAKIPSTGDATEWRNPHLSMLGSCQPAPSCQKCILSHPSCAWCKQLNFTASGEAEARRCARREELLARGCPLEELEEPRGQQEVLQDQPLSQGARGEGATQLAPQRVRVTLRPGEPQQLQVRFLRAEGYPVDLYYLMDLSYSMKDDLERVRQLGHALLVRLQEVTHSVRIGFGSFVDKTVLPFVSTVPSKLRHPCPTRLERCQSPFSFHHVLSLTGDAQAFEREVGRQSVSGNLDSPEGGFDAILQAALCQEQIGWRNVSRLLVFTSDDTFHTAGDGKLGGIFMPSDGHCHLDSNGLYSRSTEFDYPSVGQVAQALSAANIQPIFAVTSAALPVYQELSKLIPKSAVGELSEDSSNVVQLIMDAYNSLSSTVTLEHSSLPPGVHISYESQCEGPEKREGKAEDRGQCNHVRINQTVTFWVSLQATHCLPEPHLLRLRALGFSEELIVELHTLCDCNCSDTQPQAPHCSDGQGHLQCGVCSCAPGRLGRLCECSVAELSSPDLESGCRAPNGTGPLCSGKGHCQCGRCSCSGQSSGHLCECDDASCERHEGILCGGFGRCQCGVCHCHANRTGRACECSGDMDSCISPEGGLCSGHGRCKCNRCQCLDGYYGALCDQCPGCKTPCERHRDCAECGAFRTGPLATNCSTACAHTNVTLALAPILDDGWCKERTLDNQLFFFLVEDDARGTVVLRVRPQEKGADHTQAIVLGCVGGIVAVGLGLVLAYRLSVEIYDRREYSRFEKEQQQLNWKQDSNPLYKSAITTTINPRFQEADSPTL
other: rolling cell adhesion in shear flow: increases

Reference: PMC3255974
